Laboratory results from patent US20190211057A1 (NATIONAL YANG MING UNIVERSITY, published 2019).
Positions count from the first letter of the chain named. Names may count otherwise.

Tests used:
[1] = biological target: T1, integrin αvβ3 receptor on cells (HUVEC, U87MG, MCF-7, ES-2-luc) (human, UniProt P06756 31-1048; P05106 27-788); assay: cell-based or functional assay
[2] = biological target: T1, integrin αvβ3 receptor on cells (HUVEC, …); assay: cell-based or functional assay; remark: listed apart in the source
[3] = biological target: T1, integrin αvβ3 receptor on cells (HUVEC, …); assay: cell ELISA, HUVEC against MCF-7
[4] = biological target: T1, integrin αvβ3 receptor on cells (HUVEC, …); assay: cell ELISA, U87MG against MCF-7
[5] = biological target: T2, integrin αvβ3 receptor (UniProt P06756 31-992; P05106 27-718); assay: ELISA on αvβ3 integrin receptor
T2 construct: also called αvβ3 integrin; αvβ3 integrin receptor
T2 sequence (P06756 31-992, chain 1 of 2): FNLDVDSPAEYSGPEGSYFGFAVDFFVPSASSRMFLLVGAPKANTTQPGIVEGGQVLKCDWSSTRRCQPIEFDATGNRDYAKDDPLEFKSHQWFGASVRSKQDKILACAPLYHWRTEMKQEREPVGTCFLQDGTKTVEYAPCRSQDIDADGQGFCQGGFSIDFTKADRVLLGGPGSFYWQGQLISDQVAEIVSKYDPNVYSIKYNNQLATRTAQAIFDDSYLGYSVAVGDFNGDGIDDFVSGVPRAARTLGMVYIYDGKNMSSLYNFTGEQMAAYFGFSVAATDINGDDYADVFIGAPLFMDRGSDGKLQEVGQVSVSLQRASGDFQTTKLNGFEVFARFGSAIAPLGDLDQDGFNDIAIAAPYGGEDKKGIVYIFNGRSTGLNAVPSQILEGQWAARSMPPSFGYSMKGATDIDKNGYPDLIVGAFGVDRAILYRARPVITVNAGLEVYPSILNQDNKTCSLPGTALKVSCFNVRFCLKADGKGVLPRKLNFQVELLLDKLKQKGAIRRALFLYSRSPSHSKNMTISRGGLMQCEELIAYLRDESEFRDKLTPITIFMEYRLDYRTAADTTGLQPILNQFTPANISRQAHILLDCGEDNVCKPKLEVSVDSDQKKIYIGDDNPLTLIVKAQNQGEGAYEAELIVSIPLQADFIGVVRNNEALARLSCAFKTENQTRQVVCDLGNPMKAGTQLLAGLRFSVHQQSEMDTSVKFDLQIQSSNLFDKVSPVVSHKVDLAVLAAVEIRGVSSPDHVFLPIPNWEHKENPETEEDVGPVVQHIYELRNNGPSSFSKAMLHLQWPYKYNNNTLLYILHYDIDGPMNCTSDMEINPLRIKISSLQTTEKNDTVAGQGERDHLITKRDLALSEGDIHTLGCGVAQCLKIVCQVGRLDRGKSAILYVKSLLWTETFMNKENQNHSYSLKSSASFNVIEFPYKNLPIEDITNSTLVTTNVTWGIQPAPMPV
T2 sequence (P05106 27-718, chain 2 of 2): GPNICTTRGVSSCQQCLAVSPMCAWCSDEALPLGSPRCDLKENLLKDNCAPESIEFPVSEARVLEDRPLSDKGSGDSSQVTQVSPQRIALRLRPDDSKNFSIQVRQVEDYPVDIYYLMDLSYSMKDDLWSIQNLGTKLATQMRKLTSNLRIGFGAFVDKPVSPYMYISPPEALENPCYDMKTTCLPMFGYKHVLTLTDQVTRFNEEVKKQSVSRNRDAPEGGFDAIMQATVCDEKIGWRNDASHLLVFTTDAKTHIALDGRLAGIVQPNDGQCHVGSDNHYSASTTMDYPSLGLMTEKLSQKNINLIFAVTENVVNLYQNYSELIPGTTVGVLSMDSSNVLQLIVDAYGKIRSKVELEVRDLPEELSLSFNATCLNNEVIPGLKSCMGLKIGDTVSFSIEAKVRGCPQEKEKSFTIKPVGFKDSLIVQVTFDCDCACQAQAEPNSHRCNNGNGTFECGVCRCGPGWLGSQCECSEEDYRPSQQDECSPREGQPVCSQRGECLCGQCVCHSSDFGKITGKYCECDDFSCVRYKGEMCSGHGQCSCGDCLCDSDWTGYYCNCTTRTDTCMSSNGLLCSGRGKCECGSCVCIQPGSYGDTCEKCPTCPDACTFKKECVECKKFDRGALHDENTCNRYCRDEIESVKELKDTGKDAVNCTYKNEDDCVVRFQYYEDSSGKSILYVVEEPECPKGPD

[6] = biological target: T1, integrin αvβ3 receptor on cells (HUVEC, …); assay: cell ELISA on fixed HUVEC cells, anti-His6tag-HRP
[7] = biological target: T1, integrin αvβ3 receptor on cells (HUVEC, …); assay: cell ELISA on fixed U87MG cells, anti-His6tag-HRP
[8] = biological target: T1, integrin αvβ3 receptor on cells (HUVEC, …); assay: cell ELISA on fixed MCF-7 cells (low αvβ3 expression), anti-His6tag-HRP
[9] = biological target: T1, integrin αvβ3 receptor on cells (HUVEC, …); assay: cell-based or functional assay; remark: listed apart in the source
[10] = biological target: T1, integrin αvβ3 receptor on cells (HUVEC, …); assay: cell ELISA on HUVEC cells, anti-His-HRP
Source text: (§1) After reacted with anti-His-HRP antibody and TMB substrate, ELISA reader (OD450 nm) is used to detect the amount of recombinant protein bound to the cells, and the binding curve is drawn. The nonlinear curve of the prism software is used to make a diagram and calculate the dissociation constant (Kd).
(§2) The anti-His6-Tag-HRP antibody and TMB show the color reagent to detect the amount of recombinant protein bound to the cell, then the dissociation constant Kd value of the recombinant protein and the integrin αᵥβ₃ receptor is calculated and a binding curve is drawn.

[11] = biological target: T1, integrin αvβ3 receptor on cells (HUVEC, …); assay: cell ELISA on U87MG cells, anti-His-HRP
Source text: as §1, §2

[12] = biological target: T1, integrin αvβ3 receptor on cells (HUVEC, …); assay: cell ELISA on MCF-7 cells (low αvβ3 expression), anti-His-HRP
Source text: as §1, §2

[13] = biological target: T2, integrin αvβ3 receptor; assay: ELISA on integrin αvβ3 receptor, anti-His6-HRP detection, curve fit
Source text: (§3) The dissociation constant Kd is obtained by prism software with curve fitting method.

[14] = biological target: T2, integrin αvβ3 receptor; assay: ELISA on integrin αvβ3 receptor (repeats Table 14)
[15] = biological target: T2, integrin αvβ3 receptor; assay: ELISA on integrin αvβ3 receptor, one site-specific binding fit
Source text: The curve and receptor binding ability parameters (see FIG. 19 and Table 14) are fitted by the binding ability of DTPA-modified protein and integrin αᵥβ₃ receptor through the One site-Specific binding formula in the Graph prism program.

[16] = biological target: T2, integrin αvβ3 receptor; assay: ELISA on integrin αvβ3 receptor, anti-His6-HRP; paragraph 61 says yCD and yCD/UPRT cannot be bound to integrin αvβ3
Source text: as §3

[17] = biological target: T1, integrin αvβ3 receptor on cells (HUVEC, …); assay: immunofluorescence on U87MG and HUVEC cells, no anti-His6tag signal
Source text: Immunofluorescence is used to observe the distribution of the protein bound with cell in the cell.

T1 sequence (P06756 31-1048, chain 1 of 2): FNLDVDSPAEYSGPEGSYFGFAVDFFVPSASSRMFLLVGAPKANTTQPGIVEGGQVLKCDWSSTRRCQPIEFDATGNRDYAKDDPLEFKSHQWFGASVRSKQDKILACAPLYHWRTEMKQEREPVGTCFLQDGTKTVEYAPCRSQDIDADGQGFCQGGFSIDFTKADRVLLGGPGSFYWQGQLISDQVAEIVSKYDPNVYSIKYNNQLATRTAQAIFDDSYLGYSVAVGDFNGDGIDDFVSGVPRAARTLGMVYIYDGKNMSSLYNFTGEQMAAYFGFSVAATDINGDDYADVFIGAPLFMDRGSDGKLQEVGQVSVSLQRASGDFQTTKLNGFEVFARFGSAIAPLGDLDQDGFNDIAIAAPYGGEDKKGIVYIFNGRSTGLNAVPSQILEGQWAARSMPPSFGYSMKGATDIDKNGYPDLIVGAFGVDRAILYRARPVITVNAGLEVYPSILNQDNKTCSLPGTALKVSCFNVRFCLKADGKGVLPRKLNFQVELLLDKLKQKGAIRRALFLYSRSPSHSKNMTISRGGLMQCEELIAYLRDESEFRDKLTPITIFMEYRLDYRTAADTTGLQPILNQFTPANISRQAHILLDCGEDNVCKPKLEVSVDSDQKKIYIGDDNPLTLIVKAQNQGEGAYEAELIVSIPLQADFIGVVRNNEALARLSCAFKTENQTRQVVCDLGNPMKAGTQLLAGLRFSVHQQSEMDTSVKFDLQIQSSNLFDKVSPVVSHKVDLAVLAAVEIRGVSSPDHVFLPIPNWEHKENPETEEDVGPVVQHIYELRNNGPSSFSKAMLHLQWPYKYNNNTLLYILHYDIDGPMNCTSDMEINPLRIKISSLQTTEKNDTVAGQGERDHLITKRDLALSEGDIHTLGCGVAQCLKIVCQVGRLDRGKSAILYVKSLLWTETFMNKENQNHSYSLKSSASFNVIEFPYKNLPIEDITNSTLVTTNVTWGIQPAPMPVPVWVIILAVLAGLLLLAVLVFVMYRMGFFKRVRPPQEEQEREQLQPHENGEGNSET
T1 sequence (P05106 27-788, chain 2 of 2): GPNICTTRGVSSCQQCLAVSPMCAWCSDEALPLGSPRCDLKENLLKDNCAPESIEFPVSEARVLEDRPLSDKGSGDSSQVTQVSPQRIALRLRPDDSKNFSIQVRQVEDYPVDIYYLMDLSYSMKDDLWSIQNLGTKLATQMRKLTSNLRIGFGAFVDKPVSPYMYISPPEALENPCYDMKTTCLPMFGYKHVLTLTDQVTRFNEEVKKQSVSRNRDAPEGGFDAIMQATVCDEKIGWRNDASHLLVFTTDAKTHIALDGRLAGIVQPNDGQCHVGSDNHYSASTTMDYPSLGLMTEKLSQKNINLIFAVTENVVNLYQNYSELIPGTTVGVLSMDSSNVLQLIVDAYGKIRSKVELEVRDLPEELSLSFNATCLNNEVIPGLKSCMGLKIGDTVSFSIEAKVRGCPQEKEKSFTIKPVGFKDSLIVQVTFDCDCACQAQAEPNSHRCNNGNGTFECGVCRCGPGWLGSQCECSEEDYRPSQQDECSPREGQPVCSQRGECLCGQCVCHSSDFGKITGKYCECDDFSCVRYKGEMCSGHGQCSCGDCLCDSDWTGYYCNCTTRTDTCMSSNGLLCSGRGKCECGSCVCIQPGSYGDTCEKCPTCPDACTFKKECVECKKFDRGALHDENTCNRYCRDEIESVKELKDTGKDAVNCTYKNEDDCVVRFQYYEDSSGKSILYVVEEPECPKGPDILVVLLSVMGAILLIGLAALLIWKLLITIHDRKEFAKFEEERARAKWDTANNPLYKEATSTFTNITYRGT

B1: RGD4C-EcCD_WT (other)
chain: MGCDCRGDCFCMSNNALQTIINARLPGEEGLWQIHLQDGKISAIDAQSGVMPITENSLDAEQGLVIPPFVEPHIHLDTTQTAGQPNWNQSGTLFEGIERWAERKALLTHDDVKQRAWQTLKWQIANGIQHVRTHVDVSDATLTALKAMLEVKQEVAPWIDLQIVAFPQEGILSYPNGEALLEEALRLRADVVGAIPHFEFTREYGVESLHKTFALAQKYDRLIDVHCDEIDDEQSRFVETVAALAHHEGMGARVTASHTTAMHSYNGAYTSRLFRLLKMSGINFVANPLVNIHLQGRFDTYPKRRGITRVKEMLESGINVCFGHDDVFDPWYPLGTANMLQVLHMGLHVCQLMGYGQINDGLNLITHHSARTLNLQDYGIAAGNSANLIILPAENGFDALRRQVPVRYSVRGGKVIASTQPAQTTVYLEQPEAIDYKRLEHHHHHH
notes: Fusion of the RGD4C peptide with E. coli cytosine deaminase; His6-tagged
Q: B1 was tested. Which “IC50 of 5-FC, MTT cytotoxicity, HUVEC cells incubated with 50 nM protein then washed” value [1] did it give?
A: The value was 35.9 µM.

Q: What about the “IC50 of 5-FC, MTT cytotoxicity, MCF-7 cells (low αvβ3) incubated with 50 nM protein then washed” value [1] of the same binder?
A: Its value is > 10000 µM.

Q: And the “IC50 of 5-FC, MTT cytotoxicity, U87MG cells incubated with 50 nM protein then washed” value [1]?
A: Its value is 44.1 µM.

Q: What about the “protein reaction concentration IC50 of cytotoxic effect, MTT, HUVEC cells, 100 µM 5-FC” value [2] of the same binder?
A: Its value is 0.0229 µM.

Q: And the “protein reaction concentration IC50 of cytotoxic effect, MTT, U87MG cells, 100 µM 5-FC” value [2]?
A: The value was 0.0385 µM.

Q: And the “fold binding ability against MCF-7” value [3]?
A: The value was 16.1 fold.

Q: What about the “fold binding ability against MCF-7” value [4] of the same binder?
A: Its value is 23.7 fold.

Q: What about the Kd [5] of the same binder?
A: The Kd was 0.007 µM.

Q: And the Kd [6]?
A: The Kd was 0.0203 µM.

Q: What about the Kd [7] of the same binder?
A: The Kd was 0.0138 µM.

Q: And the Kd [8]?
A: The Kd was 0.327 µM.

B2: RGD4C-EcCD_D314A (other)
chain: B1 chain with D326A
notes: Fusion of the RGD4C peptide with the E. coli cytosine deaminase D314A mutant; His6-tagged
Q: Which results are given for B2?
A: IC50 of 5-FC, MTT cytotoxicity, HUVEC cells incubated with 50 nM protein then washed [1]: 8.2 µM; IC50 of 5-FC, MTT cytotoxicity, MCF-7 cells (low αvβ3) incubated with 50 nM protein then washed [1]: > 10000 µM; IC50 of 5-FC, MTT cytotoxicity, U87MG cells incubated with 50 nM protein then washed [1]: 5 µM; protein reaction concentration IC50 of cytotoxic effect, MTT, HUVEC cells, 100 µM 5-FC [2]: 0.0098 µM; protein reaction concentration IC50 of cytotoxic effect, MTT, U87MG cells, 100 µM 5-FC [2]: 0.004 µM; fold binding ability against MCF-7 [3]: 12.9 fold; fold binding ability against MCF-7 [4]: 19.9 fold; Kd [5]: 0.0091 µM; Kd [6]: 0.0233 µM; Kd [7]: 0.0151 µM; Kd [8]: 0.3 µM

B3: RGD4C-yCD/UPRT (other)
chain: MACDCRGDCFCVTGGMASKWDQKGMDIAYEEAALGYKEGGVPIGGCLINNKDGSVLGRGHNMRFQKGSATLHGEISTLENCGRLEGKVYKDTTLYTTLSPCDMCTGAIIMYGIPRCVVGENVNFKSKGEKYLQTRGHEVVVVDDERCKKIMKQFIDERPQDWFEDIGEASEPFKNVYLLPQTNQLLGLYTIIRNKNTTRPDFIFYSDRIIRLLVEEGLNHLPVQKQIVETDTNENFEGVSFMGKICGVSIVRAGESMEQGLRDCCRSVRIGKILIQRDEETALPKLFYEKLPEDISERYVFLLDPMLATGGSAIMATEVLIKRGVKPERIYFLNLICSKEGIEKYHAAFPEVRIVTGALDRGLDENKYLVPGLGDFGDRYYCVLEHHHHHH
notes: Fusion of the RGD4C peptide, yCD and yeast UPRT; His6-tagged recombinant protein; also called RGD4C-yCD/UPRPT
Q: Which “IC50 of 5-FC, MTT cytotoxicity, HUVEC cells incubated with 500 nM protein then washed” value [9] does the source give for B3 here?
A: The value was 8.6 µM.

Q: And the “IC50 of 5-FC, MTT cytotoxicity, MCF-7 cells (low αvβ3) incubated with 500 nM protein then washed” value [9]?
A: The value was 4340 µM.

Q: And the “IC50 of 5-FC, MTT cytotoxicity, U87MG cells incubated with 500 nM protein then washed” value [9]?
A: The value was 5.1 µM.

Q: And the “fold cell binding ability against MCF-7” value [3]?
A: The value was ~6.9 fold.

Q: What about the “fold cell binding ability against MCF-7” value [4] of the same binder?
A: Its value is ~5.8 fold.

Q: What about the Kd [10] of the same binder?
A: Its Kd is 0.0483 µM.

Q: And the Kd [11]?
A: The Kd was 0.0578 µM.

Q: What about the Kd [12] of the same binder?
A: Its Kd is 0.335 µM.

Q: And the Kd [13]?
A: The Kd was 0.0417 µM.

B4: DTPA-RGD4C-yCD (other)
chain: MACDCRGDCFCVTGGMASKWDQKGMDIAYEEAALGYKEGGVPIGGCLINNKDGSVLGRGHNMRFQKGSATLHGEISTLENCGRLEGKVYKDTTLYTTLSPCDMCTGAIIMYGIPRCVVGENVNFKSKGEKYLQTRGHEVVVVDDERCKKIMKQFIDERPQDWFEDIGELEHHHHHH
modifications: DTPA on primary amines, 0.94 DTPA per protein on average
Q: What does the source list for B4?
A: Kd [14]: 0.0476 µM; Kd [15]: 0.0476 µM

B5: yeast cytosine deaminase (yCD) (enzyme)
chain: MVVTGGMASKWDQKGMDIAYEEAALGYKEGGVPIGGCLINNKDGSVLGRGHNMRFQKGSATLHGEISTLENCGRLEGKVYKDTTLYTTLSPCDMCTGAIIMYGIPRCVVGENVNFKSKGEKYLQTRGHEVVVVDDERCKKIMKQFIDERPQDWFEDIGELEHHHHHH
notes: Recombinant, from pET28a(+), detected by its His6 tag
Q: Does B5 bind [16]?
A: Result: no binding

B6: yCD/UPRT (enzyme)
chain: MVVTGGMASKWDQKGMDIAYEEAALGYKEGGVPIGGCLINNKDGSVLGRGHNMRFQKGSATLHGEISTLENCGRLEGKVYKDTTLYTTLSPCDMCTGAIIMYGIPRCVVGENVNFKSKGEKYLQTRGHEVVVVDDERCKKIMKQFIDERPQDWFEDIGEASEPFKNVYLLPQTNQLLGLYTIIRNKNTTRPDFIFYSDRIIRLLVEEGLNHLPVQKQIVETDTNENFEGVSFMGKICGVSIVRAGESMEQGLRDCCRSVRIGKILIQRDEETALPKLFYEKLPEDISERYVFLLDPMLATGGSAIMATEVLIKRGVKPERIYFLNLICSKEGIEKYHAAFPEVRIVTGALDRGLDENKYLVPGLGDFGDRYYCVLEHHHHHH
notes: Control fusion without RGD4C
Q: Does B6 bind [16]?
A: Result: no binding

B7: EcCD_WT (enzyme, E. coli)
chain: MSNNALQTIINARLPGEEGLWQIHLQDGKISAIDAQSGVMPITENSLDAEQGLVIPPFVEPHIHLDTTQTAGQPNWNQSGTLFEGIERWAERKALLTHDDVKQRAWQTLKWQIANGIQHVRTHVDVSDATLTALKAMLEVKQEVAPWIDLQIVAFPQEGILSYPNGEALLEEALRLRADVVGAIPHFEFTREYGVESLHKTFALAQKYDRLIDVHCDEIDDEQSRFVETVAALAHHEGMGARVTASHTTAMHSYNGAYTSRLFRLLKMSGINFVANPLVNIHLQGRFDTYPKRRGITRVKEMLESGINVCFGHDDVFDPWYPLGTANMLQVLHMGLHVCQLMGYGQINDGLNLITHHSARTLNLQDYGIAAGNSANLIILPAENGFDALRRQVPVRYSVRGGKVIASTQPAQTTVYLEQPEAIDYKRLEHHHHHH
notes: Control without RGD4C; also called E. coli cytosine deaminase (EcCD) wild type
Q: Does B7 bind [17]?
A: Result: no binding

B8: EcCD_D314A (enzyme)
chain: B7 chain with D315A
notes: Control without RGD4C; also called E. coli cytosine deaminase D314A mutant
Q: Does B8 bind [17]?
A: Result: no binding
